Molecular target: Alanine racemase (Alr) from Streptomyces coelicolor A3(2), His6-tagged (Streptomyces coelicolor A3(2)) (UniProt O86786)
Test: SEC

For “Alanine racemase (Alr) from Streptomyces coelicolor A3(2), His6-tagged (from UniProt O86786 1-391) (enzyme)”, which stoichiometry N is on record?
The stoichiometry N was 2.
